Results as given in US20260209316A1 (US Dept. of Health and Human Services, published 2026).

B1: antibody 13C6 (antibody, V domains shown)
VH: QLTLKESGPGILKPSQTLSLTCSLSGFSLSTSGVGVGWFRQPSGKGLEWLALIWWDDDKYYNPSLKSQLSISKDFSRNQVFLKISNVDIADTATYYCARRDPFGYDNAMGYWGQGTSVTVSS
VL: DIVMTQSQKFMSTSVGDRVSLTCKASQNVGTAVAWYQQKPGQSPKLLIYSASNRYTGVPDRFTGSGSGTDFTLTISNMQSEDLADYFCQQYSSYPLTFGAGTKLELR
B2: antibody 523S (antibody, V domains shown)
VH: QVQLVQSGAELKKPGASVKVSCKASGYTFSDHYVHWVRQAPGQGLEWMGRINPNSGGTNYAQRFLGRVTMTRDASISTAYLDLSSLRSDDTAVYYCARSSSSWSGHYYYYMDVWGKGTTVTVSS
VL: QSVLTQPPSVSAAPGQRVTISCSGSTSNIASNFVSWYQQLPGTAPKLLIYDNHKRPSGIPDRFSGSKSGTSATLGITGLQTGDEADYYCGTWDSSLSAGVFGGGTKVTVLG
B3: antibody 573S (antibody, V domains shown)
VH: EVQLVESGGGLVKPGGSLRLSCAASGFTFSSYTMNWVRQAPGKGLEWVSCIRSSSSDKYYADSVKGRFTISRDNTKNSLYLQMNSLRADDTAVYYCARDLGGANNRYYFDYGMDVWGQGTTVTVSS
VL: EIVMTQSPATLSVSPGGRATLSCRASQSVYTNLAWYQQKPGQAPRLLIYDASTRATGIPARFSGSGSGTEFTLTISSLQCEDFAVYYCQHYNNWPLYTFGQGTKLEIK
B4: antibody 541S (antibody, V domains shown)
VH: QVQLVQSGAEVKKPGASVKVSCKASGYTFTNYAITWVRQAPGQGLEWMGWISAFNGQINYAQKFQGRVAMTTDTSTSTAYMELRSLRSDDTAVYYCARAPPMWFSGAKFDYWGQGTLVTVSS
VL: QSVLTQPPSVSGTPGQRVTISCSGSSSNIGSNTVNWYQQLPGTAPKLLIYSNDQRPSGVPDRFSGSKSGTSASLAISGLRSEDEADYYCAAWDETLRRVFGGGTRLTVL
B5: antibody 233S (antibody, V domains shown)
VH: EVQLVESGGGLGQPGGSLRLSCAASGFKFKIFGMNWVRQAPGKGLEWVSYISSRSSIIYYADSVKGRFTISRDDATNSLFLQMNSLRDEDTAMYYCVRDYNLIDFVWGSLFDYWGQGILVTVSS
VL: AIRMTQSPSSLSASTGDSVTITCRASQNIASYLAWYQQIPGKAPKLLIYVASTLQSGVPSRFSGSGSGTDFTLTISSLQSEDFATYYCQQYYRYPPTFGQGTKVEIK
B6: antibody 354S (antibody, V domains shown)
VH: QVQLVQSGAEVKKPGASVKVSCKASGYSFASYYIHWVRQAPGQGLEWMGIINPSGGTTSYAQKFQGRVTMTRDTSTSTVYMELSSLGSEDTAVYYCARIVDRVTIYLNGVDNYWGQGTLVTVSS
VL: EIVMTQSPATLSVSPGERVTLSCRASQSVSSNLAWFQQTPGQAPRLLIYGASTRASGVPARFSGSGSGTEFTLTISSLQSEDFAVYYCLQYNNWPPGWKYGFGQGTKLEIK
B7: antibody 294S (antibody, V domains shown)
VH: QVQLQESGPGLVKPSQTLSLTCTVSGGSISSGGYHWSWIRQHPGKGLEWIGNIYYNGRTYYNPSLKSRVTISVDTSENEFSLKLSSVTAADTAVYYCARDRRRPRIGHDYGMDVWGQGTKVIVSS
VL: DIQMTQSPSSLSASVGDRVTISCRASQSISNFLNWYQQKPGQAPKLLIYTASNLQSGVPSRFSGSGSGTDFTLTISSLQPEDFATYYCQQIYNTGMYSFGQGTKLEIKR
B8: antibody 241S (antibody, V domains shown)
VH: QVQLVQSGSELKKPGASVKVSCKASGYTFTSYTVNWVRQAPGQGLEWMGWINTNTGNPTYAQGFTGRFVFSSDTSVSTAYLQISDLKAEDTAMYYCARHVAYDLWSGHTVTFDHWGQGTLVTVSS
VL: QSALTQPPSASGSPGQSVTISCTGTSSDVGAYNYVSWYQQHPGKAPKLIIYEVTKRPSGVPDRFSGSKSGNTASLTVSGLQAEDEADYYCSSKAGGKTYVFGTGTKVTVL
B9: antibody 503S (antibody, V domains shown)
VH: QVQLVQSGAEVKKPGASVRVSCKASGYTFTSYYMHWVRQAPGQGLEWMGQINPSGGTTRYERKFQGRITVTRDTSTSTVYLELSSLRSEDTASYFCACLRDKVTYYDLWSGVDSVWGQGTLVTVSS
VL: DIQMTQSPSSLSASVGDRVTITCRASQDISTWLAWYQQKPEKAPKSLIYAASTLETGVPSRFSGSGSGTDFTLTISSLQPEDFATYYCEQYNGFPRTFGQGTKLDIK
B10: antibody 291S (antibody, V domains shown)
VH: QVQLQESGPGLVKPSQTLSLTCTVSGGSFSSGFYWSWIRQRPGKGLEWVGYTYYSGSTYYNPSLQSRVTISVDTSKNQFSLNLSSVTAADTAVYHCARADYGGLFDYWGQGILVTVSS
VL: QSVLTQPSSLSASPGASASLTCTLRSGINVGTYRIFWYQQKPGSPPQFLLRYNSDSDKQQGSGVPSRFSGSKDASANAGILLISGLQSEDEADYYCMIWHTSAWVFGGGTKLTVL
B11: antibody 545S (antibody, V domains shown)
VH: QVQLQESGPGLVKPSQTLSLTCTVSGGSISRAGSYWSWIRQHPGKGLEWIGYISYSGSTYYNPSLESRVTMSLDTSKSQFSLKLSSVTAADTAVYYCAREDRSGFYGLDVWGQGTTVTVSS
VL: QSVLTQPSSLSASPGATASLTCTLRSGINVDTYRIYWYQQKPGSPPQYLLRYKSDSDKHQGSGVPSRFSGSKDASANAGILLISGLQSADEADYYCMIWHSGAWVFGGGTKLTVQG
notes: also called 545S mAb

Molecular target: T1, mucin domain-deleted Zaire GP (GPdMuc) (Ebola (Zaire) virus (EBOV), UniProt Q05320 33-632)
Test: BLI competition on Zaire GPdMuc (upper table); competitor 380L

Binder | % inhibition of binding
B1 | 95%

Molecular target: T2, mucin domain-deleted Sudan GP (GPdMuc) (Sudan virus (SUDV), UniProt Q7T9D9 33-632)
T2 construct: also called Sudan GPdMuc; GP(S)dMuc
Test: BLI competition on Sudan GPdMuc (upper table); competitor 16F6

Binder | % inhibition of binding
B2 | 90.8%
B3 | 76.2%
B4 | 72.1%

Molecular target: T2, mucin domain-deleted Sudan GP (GPdMuc)
Test: BLI competition on Sudan GPdMuc (upper table); competitor 316L

Binder | % inhibition of binding
B2 | 9.35%
B3 | 6.38%
B4 | 16.2%

Molecular target: T2, mucin domain-deleted Sudan GP (GPdMuc)
Test: BLI competition on Sudan GPdMuc (lower table); competitor 16F6

Binder | % inhibition of binding
B5 | 22.9%
B6 | 18.7%
B7 | 13.3%
B8 | 28.2%
B9 | 24.9%

Molecular target: T1, mucin domain-deleted Zaire GP (GPdMuc)
Test: BLI competition on Zaire GPdMuc (upper table); competitor KZ52

Binder | % inhibition of binding
B1 | 16%

Molecular target: T2, mucin domain-deleted Sudan GP (GPdMuc)
Test: BLI competition on Sudan GPdMuc (lower table); competitor 15H10

Binder | % inhibition of binding
B5 | 29.6%
B6 | 18.9%
B7 | 15.7%
B8 | 38.3%
B9 | 27.8%

Molecular target: T2, mucin domain-deleted Sudan GP (GPdMuc)
Test: BLI competition on Sudan GPdMuc (upper table); competitor 15H10

Binder | % inhibition of binding
B2 | 17.4%
B3 | 15.8%
B4 | 18.6%

Molecular target: T2, mucin domain-deleted Sudan GP (GPdMuc)
Test: BLI competition on Sudan GPdMuc (lower table); competitor mAb166

Binder | % inhibition of binding
B5 | 14.4%
B6 | 16.2%
B7 | 9.71%
B8 | 10.1%
B9 | 20.7%

Molecular target: T2, mucin domain-deleted Sudan GP (GPdMuc)
Test: BLI competition on Sudan GPdMuc (upper table); competitor mAb166

Binder | % inhibition of binding
B2 | 5.74%
B3 | 8.08%
B4 | 15.7%

Molecular target: T2, mucin domain-deleted Sudan GP (GPdMuc)
Test: ELISA on coated GP

Binder | EC50
B5 | 0.195 µg/mL
B2 | 0.378 µg/mL
B6 | 0.0404 µg/mL
B7 | 0.0266 µg/mL
B8 | 0.331 µg/mL
B3 | 0.101 µg/mL
B4 | 0.23 µg/mL
B9 | 0.499 µg/mL

Molecular target: T2, mucin domain-deleted Sudan GP (GPdMuc)
Test: ELISA on coated GP
Remark: another data set of the same source

Binder | EC50
B10 | 0.0519 µg/mL
B11 | 0.0233 µg/mL

Molecular target: T1, mucin domain-deleted Zaire GP (GPdMuc)
Test: BLI competition on Zaire GPdMuc (upper table); competitor mAb114

Binder | % inhibition of binding
B1 | 97%

Molecular target: T2, mucin domain-deleted Sudan GP (GPdMuc)
Test: BLI competition on Sudan GPdMuc (lower table); competitor 316L

Binder | % inhibition of binding
B5 | 12.5%
B6 | 17.9%
B7 | 8.76%
B8 | 10.3%
B9 | 23.3%

Molecular target: T1, mucin domain-deleted Zaire GP (GPdMuc)
Test: BLI competition on Zaire GPdMuc (upper table); competitor 15H10

Binder | % inhibition of binding
B1 | 1%

Molecular target: T1, mucin domain-deleted Zaire GP (GPdMuc)
Test: BLI competition on Zaire GPdMuc (upper table); competitor 316L

Binder | % inhibition of binding
B1 | 95%
